Values of other authors as cited in article PMC3758474.

What was measured:
Grb7 SH2 (Homo sapiens) = Grb7 SH2 (Homo sapiens) (UniProt Q14451)
[1] = target: erbB2 pY1139 peptide pY1139 peptide (Homo sapiens) (UniProt P04626); assay: ITC

Kd (Grb7 SH2 (Homo sapiens)): 11 µM
Kd [1]: 2280 nM
Substance: Grb7 SH2 (from UniProt Q14451)
